Measurements published in publication PMC6110070.

How the values were obtained:
Lys65 = Lys65 (UniProt position 66, AAGANKVAVIK); conditions: Not stated. Ref 16 concerns affinity labelling of bL12 in situ on E. coli 70S ribosomes with a tRNA dialdehyde derivative.; cited from earlier work
[1] = target: recombinant E. coli ribosomal protein bL12 (L12), C-terminally His-tagged, as purified: (L7/L12)2 (E. coli) (UniProt P0A7K2); test: SEC; Superdex 75 column, elution followed at 280 nm and 260 nm, column calibrated with protein markers; apparent molecular weight about 50 kDa; oligomer of 13 kDa chains

In the case of “50S ribosomal protein bL12 (L7/L12) (Escherichia coli)”, the pKa (Lys65) is listed as 7.2.
For “recombinant E. coli ribosomal protein bL12 (L12), C-terminally His-tagged, as purified: (L7/L12)2 (from UniProt P0A7K2 1-121; P0A7K2 1-121) (natural protein)”, the stoichiometry N [1] was 4.
